Experimental data: the DeepSol protein solubility set

Assay: soluble on expression in E. coli; label from the status in PepcDB or PDB records

Sequence	soluble on expression in E. coli
MKGTQMLALNKKCWDIVAPYFFQVDCLPKYGPYTASEDEIHLFDSIKGKKVLDIGCGSGHSLQYMAEHGAEELWGLDLSSTQIETAHETLQSWNPKLICGAMEEERDIPKGYFDIVYSIYALGWTSDLRKTLELIYSYVKPGGSFIFSWEHPVYSNLMYGTEEIAFSSSYHEETPITFETFKGEDVQATLYKRKMSTYINELNRVGFTIERIEEPLEHHHHHH	not soluble
MIVFSDLDRSIIYSNKFLNADSKYANIEIYREKEISYISLDTINLIKQIQYYGMFIPTTTRTVEQFKRIEFNKYGIYFPWSITSNGGVILKDNEILKSWSEKIDKLKSNYEPIESMIHKFKDYLNVDGITNFKVAEDTFFYIVVDLSRFNLDSIKEYTNILESKNWKFYVSGRKIYFIPKEISKENAIKYLTKELGIEYFYAVGDSIMDYGMLNISNKSYVLKHGDINKNEIENSFISSSFNGMSGTEEILSNILDENCLLNI	not soluble
MGSDKIHHHHHHACDDDEATDPYDINYVYIYKPSETNATLEYKGDGTFLKEIATEHILSPVRCTKPAPQDLTIQLAIDRSLVDAYNSEYGTSYVALQNAELENATLYIKQGEYISVDTLKVHYTNMEEFKNGSENYILPIAITSINGTGVSASESNSKIFLTFESTYKPNHVTLTSSKEYLLEYQYSQGFTNLSSEWKLDGILKSAWAADGDTKVTLAINPALVGTYNALHGTDYSLLTSASLKQSTIMIKQGKTTPEESVALSFSDDMASVQLGTNYVIPVTITNVDGVGADIGENKVIYIVYKTALVGFLSCVDKPVGSVINDHSGWSFTLNGQSSDLYDYVPDGSILDIDLGKQENIKTIALHFYEWFYSSESASIAISNDGEKYEDLGVASGFANKTSYILLLVAKQAQYIRVTFHGALYYSPYINTVGIYTETE	not soluble
MHHHHHHGKPIPNPLLGLDSTENLYFQGIDPFTMNNRNHDVLSRMISEKAALHGLLNCLIKEFAIPEGYLRYEWPDEMKGIPPGAYFDGADWKGIPMMIGLPDQLQLFVMVDRRDTFGSQHYLSDVYLRQAQGDWQCPDFEPLVARLLAACEHIAGRKNPELYEQILQSQRLVSAIVSHNGRQRADAPLQHYLQSEQGLWFGHPSHPAPKARLWPAHLGQEQWAPEFQARAALHQFEVPVDGLHIGANGLTPQQVLDGFADQQPASPGHAIICMHPVQAQLFMQDARVQQLLRDNVIRDLGQSGRVASPTASIRTWFIDDHDYFIKGSLNVRITNCVRKNAWYELESTVLIDRLFRQLLDQHADTLGGLVAAAEPGVVSWSPAAAGELDSHWFREQTGGILRENFCRRTGAERSIMAGTLFARGVDLQPMIQTFLRTHYGEALDDNALLYWFDDYQTRLLRPVLSLFFNHGVVMEPHLQNSVLVHQQGRPQQVLLRDFEGVKLTDDLGIRYIDDDIHPRVRQSLLYSREQGWNRIMYCLFINHLSETILALSQGRPQLAPLMWRRVQQQLRAIQGELKQPSPELDALIAGHPVACKTNLKVRLAAEADRQASYVRLPSPWGHAVQHGSEVQHDERRHGDVRHEEARHGEVQHG	soluble
MGSDKIHHHHHHMKITTKQVGARMREARKKKKYTLRYLANKIGLSSGSTISNWELGLNLPNKRYLKKIAKACDTTVDWLLYGDFDRFVRQLLKENFQNKQLLKPPFFTQLMGRLSEEQLSYHDSLKIMIQAQKLQQSFYAFPLTVEAPSHSQESISIYEPTTAEEQSDQSYYHPFILSELHELFTHSQNPELDYSLIIAFLPLLKVDQLTEPQKEVLLAIFKRMNSFKDQTLLNEFFVELQYLL	not soluble
MSLDKLLERFLNYVSLDTQSKAGVRQVPSTEGQWKLLHLLKEQLEEMGLINVTLSEKGTLMATLPANVPGDIPAIGFISHVDTSPDCSGKNVNPQIVENYRGGDIALGIGDEVLSPVMFPVLHQLLGQTLITTDGKTLLGADDKAGIAEIMTALAVLQQKKIPHGDIRVAFTPDEEVGKGAKHFDVDAFDARWAYTVDGGGVGELEFENFNAASVNIKIVGNNVHPGTAKGVMVNALSLAARIHAEVPADESPEMTEGYEGFYHLASMKGTVERADMHYIIRDFDRKQFEARKRKMMEIAKKVGKGLHPDCYIELVIEDSYYNMREKVVEHPHILDIAQQAMRDCDIEPELKPIRGGTDGAQLSFMGLPCPNLFTGGYNYHGKHEFVTLEGMEKAVQVIVRIAELTAQRKEGGSHHHHHH	soluble
MNRFILSAFLLVAIFAISDAAVAQQQVKDGEKVEIDAFKGAKAIKRTVAGGDQIFHLDGDNKGSFVDAKGKKIESTNYEANNGILIIKKFTKADVGTYSEHPAKNTETKHADGSISAVPGLTLDISLQ	soluble
MSSRAVSLFSKCGSRISQTRGKAHFTFQPSTTLPAGLENLEKTKMNLMQSVNEAMRIAMETDDSAVLFGEDVAFGGVFRCSLDLQKKFGKDRVFNTPLCEQGIAGFGIGVAAAGATAIAEIQFGDYIFPAYDQLVNEAAKFRYRSGNQFDCGKLTVRTTWGAVGHGALYHSQSPEANFTHTPGLKLVVPRGPVQAKGLLLSCIRDPNPCIFFEPKILYRLASEDVPTGDYTIPLGQAETVRSGKDLTLVAWGTQVHVALEAAQLAKEKLNADVEVIDLQTIQPWDEDHVVESVQKTGRLIVTHEAPISSGFGAEIASTVQKRCFLNLESPIDRVAGFDTPFPHVHEPFYLPTVHRVFDAIKKSVNY	not soluble
MGSDKIHHHHHHMKFKTVGNPNGPKILLIHPMFATSECFVNLVEYLKEDYFVITPTLDGHDINENSIFLSVEDEGNKVLAYLKDNSIKELDFMLGTSLGAIIAFEIYKRNEIRINKVYLDGGPFFKFGALLQKVAAKKFCNICSEVRQNPQKAINKIERLFKGLGNEMCEVACHITEESIKNLAHACYSFTLPNLKPVEQKSVVFLYGTKEPARFCIFRLRKYKYSRIIKKNGFSHCGYLLSYPKEYAEMLKENTQ	not soluble
MTARPDTAIVLAAGLGKRMRPITDTIPKPLVRIAGKTLLDWGLDSLAAAGVAKAVVNVHYLPEQIVAHVAARSAPRIVISDESDRLLDSAGGIVKALPELGEQPFYILNADTFWIDHGPLNLGRLALAWDAAKMDILLMLADLHQATGHCGSTDFLVAPDGALRRSKGDPAGLIYAGAAIIHPRLFKDASAEPHSLNAYFDKAIAAGRLFGMPMHGHWITVGTPDAIPLAEEAVAGALAEMQLEHHHHHH	not soluble
GMQKPHLLITSAGRRAKLVEYFVKEFKTGRVSTADCSPLASALYMADQHYIVPKIDEVEYIDHLLTLCQDEGVTALLTLIDPELGLLAQATERFQAIGVTVIVSPYAACELCFDKYTMYEYCLRQGIAHARTYATMASFEEALAAGEVQLPVFVKPRNGSASIEVRRVETVEEVEQLFSKNTDLIVQELLVGQELGVDAYVDLISGKVTSIFIKEKLTMRAGETDKSRSVLRDDVFELVEHVLDGSGLVGPLDFDLFDVAGTLYLSEINPRFGGGYPHAYECGVNFPAQLYRNLMHEINVPQIGQYLDDIYMLKHDTVTLISAAELQKIKR	soluble
MSLELKKFFVLVLLLGSVCPAFCGGDTLHCRFYFPVGSAIPDLSYRDNGPRLDSFLSSIRSLQERAVLRRVRLRSGASPEGNSMLNRRLSDERLVSLRAVMRERLSVPDSVLVCLSSGEDWEGLSVLVGESDMPCRDEVLRILRDTPVWVVRGGKVVDSRKRQLMNLRGGSVWRYMAEHFFPELRNCTVVECEFGPVISGNDREIAVYQKEAEARDTVILRDTVERTVVIRDTVQVPASVGNALKPFYMGLKTNLLYDALLVPNLGVEFYLGRGWSFGGNWMYAWWKSDRHHNYWRIYGGELALRKYFGRRAAEKPLAGHHLGLYGQLFTYDFEVGGTGYMGGRPGGTLWEKMNYAVGLEYGYSLPIARRLNLDFVIGVGYWGGEYHKYDPVDGCYVWKETLQRHWFGPTKAEVSLVWLLGRGNHNEKGGKEGHHHHHH	not soluble
SMLSAASRVVSRAAVHCALRSPPPEARALAMSRPPPPRVASVLGTMEMGRRMDAPASAAAVRAFLERGHTELDTAFMYSDGQSETILGGLGLGLGGGDCRVKIATKANPWDGKSLKPDSVRSQLETSLKRLQCPQVDLFYLHAPDHGTPVEETLHACQRLHQEGKFVELGLSNYASWEVAEICTLCKSNGWILPTVYQGMYNATTRQVETELFPCLRHFGLRFYAYNPLAGGLLTGKYKYEDKDGKQPVGRFFGNSWAETYRNRFWKEHHFEAIALVEKALQAAYGASAPSVTSAALRWMYHHSQLQGAHGDAVILGMSSLEQLEQNLAATEEGPLEPAVVDAFNQAWHLVAHECPNYFR	soluble
MGSSHHHHHHNFYDSDPHISELTPKSFDKAIHNTNYTSLVEFYAPWCGHCKKLSSTFRKAAKRLDGVVQVAAVNCDLNKNKALCAKYDVNGFPTLMVFRPPKIDLSKPIDNAKKSFSAHANEVYSGARTLAPIVDFSLSRIRSYVKKFVRIDTLGSLLRKSPKLSVVLFSKQDKISPVYKSIALDWLGKFDFYSISNKKLKQLTDMNPTYEKTPEIFKYLQKVIPEQRQSDKSKLVVFDADKDKFWEYEGNSINKNDISKFLRDTFSITPNEGPFSRRSEYIAYLKTGKKPIKKNHSS	soluble
RSAFSKIESEEYNSLKSSTIQTIGTSDGGSGIGYIESGDYLVFNKINFGNGANSFKARVASGADTPTNIQLRLGSPTGTLIGTLTVASTGGWNNYEEKSCSITNTTGQHDLYLVFSGPVNIDYFIFDSNGVNP	soluble
MEKYQVKFMPDQQVIEVEKGTSLLKAASQAGIFIKSSCGGKGTCGACKVTVISGEAKSERTGNLSPEQLSRGVRLSCHTFVEGDLTVEVPPESRLQAHQVLLENANAALLTETSKDLLTYYGYHPLARKVNIRCSEPTLTDNAGDWARLSLELKRVLQSDKPLTIPLSVLQTLPETLRQAHWDLSVILTDLELGYTVLHVEPANDRPCYGLAIDVGTTTVVVYLVDLDSGEIVDKQGSYNKQAQFGDDVISRIVYAVDSKENMAEIQKAVVDTVNALIDGILERQSLTSQDIASAVIAGNTTMSQLFLGINPRYIRLEPYIPTVNSTPAVSAREIGLRLLPEALIHTYPSVASYVGGDIVSGALATDMANSDEIILFIDIGTNGEIVLGNKDWLVSCACSAGPCFEGGGILFGMRAMPGAIERVDIDPESLDVKLKVVGKIAPVGICGSGLVDCLAKLRKAGIIDRAGNFQLEHPSQSARIRATEDDKEFVLAWAHQAGGDKDIVISENDVKNLIRAKGAIYAGIRSLLQTVALEIDMIERIVIGGGFGNYLNVHDSVEIGLLPDLPQEKFEFIGNSSVKGARLALLSQKAWNEAADLARKMTYIELSIGTTFMDEFVSALFLPHTDLSLFPSVEGTFLEHHHHHH	soluble
MSLDHTYVFAVGGLDEVGKNSYAIEHNEETIMVDYGIKFASSDLLGINGIVANTSYFVENNRPIDALLLTHGHEDHIGGIPYLLQTTEVKKIYAPLLATELIKRRLSEFRDIKYNPEIIPFGDDSKVSTKYFEVDFFRVCHSIPDSFGMCIKTPNGRIVSAGDYRYDFGKDTDDTNIHKLVEMSNRGIDIFLSESTNSDQPGFSPSEDNIINNIETLIKNSKGRVFVATFASNLGRIEKIIERAIKSGRRVCIMGRSMEANIKTSKKLGYLKISESDFLTTKELNECKDREILVVLTGSQGEEMAALNQMALGKHPRLSLKPSDSIIMSSNPIPGNFKSVELLINRLYKQGVNMYTNSPNFRIHSSGHATIQELQMMFKILKPKYLIPIHGESKMLSAMKRNANSIGINPENVFVLTNGLKVELKDHNLKLTNQRIDACPIYIDKKVASKSTTDLINKRKLLSEEGIFNIIVLIDHKNKKVVKNPMLSTRGCFYAKDSSSLITKISFSVKDEIESLLNKEAEASKEKIKQAVANVVKFYVWKNKKKNPIVTTTVFDIEGHHHHHH	not soluble
